Results from the supplement of paper PMC12667976.
± gives the standard error.

B1: library; numbered along this chain (parent)
chain: MATDAALRRLLRLHRTEIAVAVDSAFPLLHALADHDVVPEDKFQETLHLKEKEGCPQAFHALLSWLLTQDSTAILDFWRVLFKDYNLERYGRLQPILDSFPKDVDLSQPRKGRKPPAVPKALVPPPRLPTKRKASEEARAAAPAALTPRGTASPGSQLKAKPPKKPESSAEQQRLPLGNGIQTMSASVQRAVAMSSGDVPGARGAVEGILIQQVFESGGSKKCIQVGGEFYTPSKFEDSGSGKNKARSSSGPKPLVRAKGAQGAAPGGGEARLGQQGSVPAPLALPSDPQLHQKNEDECAVCRDGGELICCDGCPRAFHLACLSPPLREIPSGTWRCSSCLQATVQEVQPRAEEPRPQEPPVETPLPPGLRSAGEEVRGPPGEPLAGMDTTLVYKHLPAPPSAAPLPGLDSSALHPLLCVGPEGQQNLAPGARCGVCGDGTDVLRCTHCAAAFHWRCHFPAGTSRPGTGLRCRSCSGDVTPAPVEGVLAPSPARLAPGPAKDDTASHEPALHRDDLESLLSEHTFDGILQWAIQSMARPAAPFPS

Variants of: B1
Experiment: AIRE transcriptional activation functional score (insulin promoter-GFP; nonsense median 0, synonymous median 1) (normalised score); higher = higher AIRE activity (more reporter activation)
Conditions: with insulin promoter-GFP reporter in HEK293
Protocol: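 Deep mutational scan of full-length human AIRE (codon-optimized cDNA, DT-POPCode NNN libraries over three regions) integrated at a Bxb1 landing pad in HEK293 cells carrying an insulin core promoter-GFP reporter at a Flp-In site. Cells were sorted for the top 10% GFP about 14 days after transfection. Variant frequency log-ratios (select vs non-select, TileSeq) were rescaled so that the nonsense median is 0 and the synonymous median is 1, then averaged over biological replicates.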

Point of comparison: L75Y, “AIRE transcriptional activation functional score” value 1.52 ± 0.12. Against it:
- V484E — lower, 0.615 ± 0.12
- T16P — lower, -0.109 ± 0.47
- R8V — lower, -0.0144 ± 0.31
- P27W — lower, 0.934 ± 0.087
- P27L — lower, 0.398 ± 0.14
- A317C — within error, 1.28 ± 0.24
- A317M — lower, 0.781 ± 0.048
- L32I — lower, -0.434 ± 1.1
- N86G — lower, -0.0879 ± 0.18
- W531V — lower, -0.0485 ± 0.2
- E53N — lower, 0.151 ± 0.6
- L520A — lower, 0.276 ± 0.1
- A284E — lower, 0.63 ± 0.16
- P509K — lower, 0.522 ± 0.078
- P509S — lower, 1.16 ± 0.17
- P509H — lower, 0.506 ± 0.064
- P509F — lower, 1.17 ± 0.056
- S412L — within error, 1.15 ± 0.28
- P466M — lower, 0.678 ± 0.14
- P466A — lower, 0.83 ± 0.3
- S411Y — lower, 1.06 ± 0.14
- S411R — lower, 0.871 ± 0.23
- S411L — within error, 1.24 ± 0.24
- S411F — within error, 1.46 ± 0.16
- A352N — lower, 1.01 ± 0.12
- A352R — lower, 0.916 ± 0.21
- P350L — lower, 1.17 ± 0.092
- D389R — lower, 0.387 ± 0.22
- E517S — lower, -0.144 ± 0.04
- S168G — lower, 0.755 ± 0.42
- F453M — lower, 0.268 ± 0.046
- F453A — lower, 0.274 ± 0.29
- P401Y — within error, 1.14 ± 0.42
- R465N — lower, -1.1 ± 0.54
- R456K — lower, 0.0856 ± 0.29
- V256D — lower, 0.705 ± 0.26
- T130P — within error, 1.36 ± 0.33
- K165F — within error, 1.23 ± 0.18
- F26P — lower, 0.00822 ± 0.41
- F26I — lower, -0.664 ± 0.55
- F26W — lower, 1.21 ± 0.12
- P119Q — lower, 1.02 ± 0.37
- P119N — within error, 1.04 ± 0.46
- Q69E — lower, 0.0374 ± 0.17
- C337D — within error, 1.68 ± 0.34
- C337N — within error, 1.53 ± 0.22
- P481H — lower, 1.14 ± 0.073
- G462P — lower, 0.607 ± 0.22
- G462V — lower, 1.03 ± 0.18
- R494I — lower, 0.785 ± 0.11
- G260K — lower, 0.721 ± 0.25
- G260Y — lower, 1.14 ± 0.18
- P315Q — lower, 1.05 ± 0.23
- P315E — lower, 0.802 ± 0.13
- P315V — within error, 1.12 ± 0.34
- R110E — within error, 1.09 ± 0.46
- E171H — within error, 1.64 ± 0.16
- T3P — lower, -0.0536 ± 0.46
- T3N — within error, 0.808 ± 0.74
- P398N — lower, 0.615 ± 0.095
- L470F — lower, 0.971 ± 0.13
- L470G — lower, 0.741 ± 0.084
- G274A — lower, 0.889 ± 0.18
- A138L — within error, 1.27 ± 0.59
- A138D — lower, 0.727 ± 0.48
- P492H — lower, 0.521 ± 0.11
- A489K — lower, 0.705 ± 0.14
- D198Y — lower, 0.99 ± 0.059
- D198R — lower, 0.663 ± 0.23
- H60R — lower, 0.0862 ± 0.41
- H60L — lower, -0.135 ± 0.34
- A432T — lower, 0.81 ± 0.39
- A432Y — within error, 1.28 ± 0.27
- L516D — lower, 0.758 ± 0.17
- L529G — lower, -0.203 ± 0.081
- L529P — lower, -0.359 ± 0.12
- Q290R — within error, 1.2 ± 0.41
- Q290T — lower, 0.55 ± 0.43
- Q290P — lower, 0.267 ± 0.4
- L106M — lower, 0.0877 ± 0.2
- L488G — lower, 1.03 ± 0.27
- L488E — lower, 0.182 ± 0.21
- T183A — lower, 0.69 ± 0.4
- F100V — lower, -0.124 ± 0.12
- R132V — lower, -0.3 ± 0.31
- G227S — lower, 0.225 ± 0.36
- S339N — lower, 0.771 ± 0.44
- R174S — lower, 0.758 ± 0.32
- R174Q — lower, 0.21 ± 0.27
- D297V — lower, 0.909 ± 0.28
- L285C — lower, 0.894 ± 0.2
- R513I — within error, 1.44 ± 0.29
- S476F — lower, 1.21 ± 0.13
- S476L — lower, 0.829 ± 0.29
- G305Y — lower, 1.05 ± 0.14
- K245R — lower, 0.472 ± 0.41
- K245G — lower, 0.76 ± 0.17
- K83H — lower, 0.338 ± 0.23
- V436R — lower, 0.525 ± 0.33
- V436N — lower, 1.19 ± 0.082
- P116L — within error, 1.07 ± 0.43
- D103T — lower, 0.146 ± 0.44
- A145P — lower, 0.887 ± 0.31
- A145I — lower, 0.806 ± 0.36
- Q530R — lower, -0.0677 ± 0.32
- K501Y — lower, 0.863 ± 0.22
- G268P — lower, 0.869 ± 0.21
- G268D — lower, 0.854 ± 0.21
- V38Y — lower, 0.622 ± 0.26
- V38C — lower, 0.438 ± 0.22
- K131R — lower, -0.372 ± 0.3
- V348Y — lower, 0.929 ± 0.047
- V348D — lower, 1.01 ± 0.076
- R336D — within error, 1.73 ± 0.24
- E375D — lower, 1.04 ± 0.11
- C314F — lower, 0.96 ± 0.07
- R247H — lower, -1.26 ± 0.54
- R247L — lower, 0.895 ± 0.3
- R139L — within error, 1.19 ± 0.29
- R139A — lower, -0.0134 ± 0.85
- P361H — lower, 1.14 ± 0.1
- D514T — lower, 0.26 ± 0.081
- L13I — lower, 0.695 ± 0.26
- G333V — lower, 1.05 ± 0.15
- G333Q — lower, 0.597 ± 0.094
- G180I — lower, 0.248 ± 0.49
- G180T — within error, 0.839 ± 0.76
- P407L — lower, 1.06 ± 0.27
- P407M — within error, 1.6 ± 0.12
- E353T — lower, 1.19 ± 0.13
- E353G — lower, 0.959 ± 0.24
- C311K — lower, 1.13 ± 0.052
- C340W — lower, 0.727 ± 0.019
- C340Y — lower, 0.989 ± 0.045
- P125N — lower, 0.92 ± 0.2
- A271S — lower, 1.09 ± 0.17
- C55Y — lower, 0.622 ± 0.23
- E167I — within error, 1.19 ± 0.28
- E167N — higher, 1.8 ± 0.078
- K120M — lower, 1.31 ± 0.077
- K120D — lower, 0.677 ± 0.3
- E522G — lower, 0.352 ± 0.17
- P542Q — lower, 0.942 ± 0.21
- L273F — lower, 0.977 ± 0.078
- K259L — lower, 0.941 ± 0.35
- P367C — within error, 1.47 ± 0.12
- I330T — lower, 0.637 ± 0.12
- I181W — lower, 1.14 ± 0.07
- A202N — within error, 1.59 ± 0.25
- C322R — lower, 0.999 ± 0.18
- C322Q — lower, 1.2 ± 0.043
- S217I — lower, 0.549 ± 0.2
- S217N — lower, 0.895 ± 0.22
- T504Q — higher, 1.7 ± 0.059
- T447R — lower, 0.679 ± 0.35
- G438W — lower, 1.26 ± 0.047
- A141Q — within error, 1.24 ± 0.65
- E270R — lower, 0.723 ± 0.14
- P416T — lower, 0.937 ± 0.11
- S324A — within error, 1.37 ± 0.25
- P497C — lower, 1.28 ± 0.1
- P497D — lower, 0.292 ± 0.16
- G498S — lower, 0.556 ± 0.34
- D23P — lower, -0.613 ± 0.43
- T441I — lower, 1.08 ± 0.17
- G269S — within error, 1.2 ± 0.23
